Target: ^125I-labeled human VEGF (human, UniProt P15692-4 27-191, limits assumed, 125I-labeled)
Assay: competition against ^125I-VEGF (4 ng/ml) binding to coated KDR-7N-Fc
Procedure: Methanol was dispensed in 100 μl portions into wells of a 96-well Immobilon™-P Filtration Plate (manufactured by Millipore) to give hydrophilic nature to the PVDF membrane on the bottom of the plate. […] After washing, PBS containing 1% bovine serum albumin (BSA) was added in 200 μl/well portions and the reaction was carried out at room temperature for 30 minutes to block the remaining active residues.

Chain of ^125I-labeled human VEGF (P15692 other isoform, or with tags, fused parts or gaps limits assumed): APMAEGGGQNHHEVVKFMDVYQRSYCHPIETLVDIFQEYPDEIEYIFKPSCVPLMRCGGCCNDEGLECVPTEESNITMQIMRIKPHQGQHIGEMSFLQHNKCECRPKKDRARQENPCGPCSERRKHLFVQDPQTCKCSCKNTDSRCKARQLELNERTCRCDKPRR

binding result: no binding
B1: soluble human VEGF receptor KDR-1N-Fc (Fc fusion)
chain: ASVGLPSVSLDLPRLSIQKDILTIKANTTLQITCRGQRDLDWLWPNNQSGSEQRVEVTECSDGLFCKTLTIPKVIGNDTGAYKCFYRETDLASVIYVYVQDYRS
notes: not shown: linker #1 (6 residues)
